This assay deals with FcRn-µ2m fusion protein (human β2m fused by (Gly4Ser)3 to the extracellular domain of human FcRn, His-tagged) (human) (UniProt P61769). Description: ELISA on coated FcRn-β2m fusion, pH 6; KD estimated by saturation binding fit.
Sequence of UniProt P61769 (P61769 other isoform, or with tags, fused parts or gaps limits assumed): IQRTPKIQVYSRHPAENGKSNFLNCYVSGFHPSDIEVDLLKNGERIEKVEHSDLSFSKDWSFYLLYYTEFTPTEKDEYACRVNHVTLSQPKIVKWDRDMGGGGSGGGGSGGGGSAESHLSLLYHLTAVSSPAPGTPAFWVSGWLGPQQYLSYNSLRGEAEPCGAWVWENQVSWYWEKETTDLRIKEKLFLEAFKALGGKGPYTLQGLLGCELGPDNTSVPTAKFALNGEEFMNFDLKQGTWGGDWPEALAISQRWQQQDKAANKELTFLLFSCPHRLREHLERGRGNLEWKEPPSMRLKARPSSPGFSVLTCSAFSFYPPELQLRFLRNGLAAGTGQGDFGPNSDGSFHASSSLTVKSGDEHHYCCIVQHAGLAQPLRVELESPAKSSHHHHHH

A word on the Kd: it is the constant that tells how readily two partners part at equilibrium. For the substance Trastuzumab IgG (antibody), the Kd is 900 nM.

(Values after patent publication US20240076381A1.)
